Measured values taken from patent publication US10464978B2, “Peptides and combination of peptides for use in immunotherapy against ovarian cancer and other cancers” (immatics biotechnologies GmbH, priority 2015, dated 2019).

Assays:
CD8+ T cells = experiment: In vitro T-cell priming with aAPCs loaded with peptide/MHC and anti-CD28, pMHC multimer readout (in vitro immunogenicity); type: cell-based, human; conditions: HLA-A*02, healthy donors
Protocol: In an aspect, the peptides are pre-screened for immunogenicity before being included in the warehouse. By way of example, and not limitation, the immunogenicity of the peptides included in the warehouse is determined by a method comprising in vitro T-cell priming through repeated stimulations of CD8+ T cells from healthy donors with artificial antigen presenting cells loaded with peptide/MHC complexes and anti-CD28 antibody.
In order to obtain information regarding the immunogenicity of the TUMAPs of the present invention, the inventors performed investigations using an in vitro T-cell priming assay based on repeated stimulations of CD8+ T cells with artificial antigen presenting cells (aAPCs) loaded with peptide/MHC complexes and anti-CD28 antibody.
In order to perform in vitro stimulations by artificial antigen presenting cells loaded with peptide-MHC complex (pMHC) and anti-CD28 antibody, the inventors first isolated CD8+ T cells from fresh HLA-A*02 leukapheresis products via positive selection using CD8 microbeads (Miltenyi Biotec, Bergisch-Gladbach, Germany) of healthy donors obtained from the University clinics Mannheim, Germany, after informed consent.
PBMCs and isolated CD8+ lymphocytes were incubated in T-cell medium (TCM) until use consisting of RPMI-Glutamax (Invitrogen, Karlsruhe, Germany) supplemented with 10% heat inactivated human AB serum (PAN-Biotech, Aidenbach, Germany), 100 U/ml Penicillin/100 μg/ml Streptomycin (Cambrex, Cologne, Germany), 1 mM sodium pyruvate (CC Pro, Oberdorla, Germany), 20 μg/ml Gentamycin (Cambrex). 2.5 ng/ml IL-7 (PromoCell, Heidelberg, Germany) and 10 U/ml IL-2 (Novartis Pharma, Nürnberg, Germany) were also added to the TCM at this step.
Generation of pMHC/anti-CD28 coated beads, T-cell stimulations and readout was performed in a highly defined in vitro system using four different pMHC molecules per stimulation condition and 8 different pMHC molecules per readout condition.
The purified co-stimulatory mouse IgG2a anti human CD28 Ab 9.3 (Jung et al., 1987) was chemically biotinylated using Sulfo-N-hydroxysuccinimidobiotin as recommended by the manufacturer (Perbio, Bonn, Germany). Beads used were 5.6 μm diameter streptavidin coated polystyrene particles (Bangs Laboratories, Illinois, USA).
pMHC used for positive and negative control stimulations were A*0201/MLA-001 (peptide […] (SEQ ID NO. 664) from modified Melan-A/MART-1) and A*0201/DDX5-001 ([…] from DDX5, SEQ ID NO. 665), respectively.
800.000 beads/200 μl were coated in 96-well plates in the presence of 4×12.5 ng different biotin-pMHC, washed and 600 ng biotin anti-CD28 were added subsequently in a volume of 200 μl. Stimulations were initiated in 96-well plates by co-incubating […] CD8+ T cells with 2×10^5 washed coated beads in 200 μl TCM supplemented with 5 ng/ml IL-12 (PromoCell) for 3 days at 37° C. Half of the medium was then exchanged by fresh TCM supplemented with 80 U/ml IL-2 and incubating was continued for 4 days at 37° C. This stimulation cycle was performed for a total of three times. For the pMHC multimer readout using 8 different pMHC molecules per condition, a two-dimensional combinatorial coding approach was used as previously described (Andersen et al., 2012) with minor modifications encompassing coupling to 5 different fluorochromes. Finally, multimeric analyses were performed by staining the cells with Live/dead near IR dye (Invitrogen, Karlsruhe, Germany), CD8-FITC antibody clone SK1 (BD, Heidelberg, Germany) and fluorescent pMHC multimers. For analysis, a BD LSRII SORP cytometer equipped with appropriate lasers and filters was used. Peptide specific cells were calculated as percentage of total CD8+ cells. Evaluation of multimeric analysis was done using the FlowJo software (Tree Star, Oregon, USA). In vitro priming of specific multimer+ CD8+ lymphocytes was detected by comparing to negative control stimulations. […]

HLA-A*02:01 = HLA-A*02:01 (Homo sapiens, UniProt P04439, D140Y/D185E/D98H/E176V/E277Q/G131W/G231S/I119V/I121R/I166T/I218V/L300P/L318F/N151K/N90K/P208A/P217A/Q86G/Q94H/R138H/R169H/T345S); experiment: MHC binding assay: UV-ligand exchange with beta2m ELISA (peptide exchange yield); conditions: binding to HLA-A*02:01
How it was run: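 Values give exchange yield, measured by β2m ELISA: 100-fold-diluted monomers bound to streptavidin plates (1h, 37° C), probed with HRP anti-β2m at 2 ug/ml and read at 450 nm after TMB. Monomers came from UV-triggered cleavage of a photolabile peptide and exchange for the test peptide.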

Substance	donors (percentage of positive donors) (CD8+ T cells)	wells (percentage of positive wells) (CD8+ T cells)	Peptide exchange (MHC class I binding score, peptide exchange yield) (HLA-A*02:01)
659 (ILFPDIIARA; listed as Homo sapiens) [compound 659]	+++ (50%-69% = +++)	+ (<20% = +)	
663 (KIQEMQHFL; listed as Homo sapiens) [compound 663]	+++ (50%-69% = +++)	+ (<20% = +)	
648 (LLWGNAIFL; listed as Homo sapiens) [compound 648]	+++ (50%-69% = +++)	++ (20%-49% = ++)	
662 (KIQEILTQV; listed as Homo sapiens) [compound 662]	+++ (50%-69% = +++)	+ (<20% = +)	
158 (KLFDVDEDGYI; listed as Homo sapiens) [compound 158]			“+++” (≥50 = +++)
225 (SLLKVLPAL; listed as Homo sapiens) [compound 225]			“+++” (≥50 = +++)
503 (SLNHFTHSV; listed as Homo sapiens) [compound 503]			“+++” (≥50 = +++)
620 (KLLNKIYEA; listed as Homo sapiens) [compound 620]			“++++” (≥75% = ++++)
261 (YVLEFLEEI; listed as Homo sapiens) [compound 261]			“++” (≥20% = ++)
575 (YLISQVEGHQV; listed as Homo sapiens) [compound 575]			“+++” (≥50 = +++)
64 (YAAPGGLIGV; listed as Homo sapiens) [compound 64]			“++” (≥20% = ++)
521 (MLLTKLPTI; listed as Homo sapiens) [compound 521]			“+++” (≥50 = +++)
242 (AIAYILQGV; listed as Homo sapiens) [compound 242]			“++” (≥20% = ++)
195 (GLFADLLPRL; listed as Homo sapiens) [compound 195]			“+++” (≥50 = +++)
172 (VLYSYTIITV; listed as Homo sapiens) [compound 172]			“++” (≥20% = ++)
169 (NLPEYLPFV; listed as Homo sapiens) [compound 169]			“+++” (≥50 = +++)
167 (KVLEVTEEFGV; listed as Homo sapiens) [compound 167]			“+++” (≥50 = +++)
255 (VLASYNLTV; listed as Homo sapiens) [compound 255]			“+++” (≥50 = +++)
86 (NLIGKIENV; listed as Homo sapiens) [compound 86]			“+++” (≥50 = +++)
305 (SIANFSEFYV; listed as Homo sapiens) [compound 305]			“++++” (≥75% = ++++)
452 (ILLEHGADPNL; listed as Homo sapiens) [compound 452]			“+++” (≥50 = +++)
510 (KLYSVVSQL; listed as Homo sapiens) [compound 510]			“++” (≥20% = ++)

Substance	donors (percentage of positive donors) (CD8+ T cells)	wells (percentage of positive wells) (CD8+ T cells)	Peptide exchange (MHC class I binding score, peptide exchange yield) (HLA-A*02:01)
113 (GLLPTPLFGV; listed as Homo sapiens) [compound 113]			“+++” (≥50 = +++)
446 (QLIPALAKV; listed as Homo sapiens) [compound 446]			“+++” (≥50 = +++)
309 (GLFDGVPTTA; listed as Homo sapiens) [compound 309]			“+++” (≥50 = +++)
179 (KVLNELYTV; listed as Homo sapiens) [compound 179]			“+++” (≥50 = +++)
570 (ALANQIPTV; listed as Homo sapiens) [compound 570]			“++” (≥20% = ++)
88 (FLLVGDLMAV; listed as Homo sapiens) [compound 88]			“+++” (≥50 = +++)
449 (KLAEGLDIQL; listed as Homo sapiens) [compound 449]			“+++” (≥50 = +++)
57 (TLAELQPPVQL; listed as Homo sapiens) [compound 57]			“+++” (≥50 = +++)
220 (LLQKFVPEI; listed as Homo sapiens) [compound 220]			“++” (≥20% = ++)
588 (SLLPLSHLV; listed as Homo sapiens) [compound 588]			“+++” (≥50 = +++)
189 (ALQRKLPYV; listed as Homo sapiens) [compound 189]			“+++” (≥50 = +++)
22 (IMEENPGIFAV; listed as Homo sapiens) [compound 22]			“+++” (≥50 = +++)
457 (SLLPGNLVEKV; listed as Homo sapiens) [compound 457]			“+++” (≥50 = +++)
489 (KMWEELPEVV; listed as Homo sapiens) [compound 489]			“+++” (≥50 = +++)
206 (VLQEGKLQKLAQL; listed as Homo sapiens) [compound 206]			“+++” (≥50 = +++)
126 (VLAYFLPEA; listed as Homo sapiens) [compound 126]			“++++” (≥75% = ++++)
571 (LLLTTIPQI; listed as Homo sapiens) [compound 571]			“+++” (≥50 = +++)
335 (YSLSSVVTV; listed as Homo sapiens) [compound 335]			“+++” (≥50 = +++)
513 (SLWPSPEQL; listed as Homo sapiens) [compound 513]			“++” (≥20% = ++)
463 (SLVESHLSDQLTL; listed as Homo sapiens) [compound 463]			“+++” (≥50 = +++)
132 (LLVEQPPLAGV; listed as Homo sapiens) [compound 132]			“+++” (≥50 = +++)
